Experimental data as given in patent publication US20110076298A1, “Soluble stabilized trimeric hiv env proteins and uses thereof” (priority 2006, published 2011).
Like-named read-outs stand apart in the source and are kept apart here.

Experiments:
[1] = Detergent collapse effect on 5768.4 SOSIP R6 gp140 preparation, BN-PAGE; type: physicochemical; details: 1 hour, room temperature
Protocol: FIG. 15: Detergent “collapse” effect on subtype B 5768.4 HMW aggregate. 0.24 ug of purified subtype B 5768.4 SOSIP R6 gp140 trimer was incubated with 0.05 or 0.1% Tween 20. In addition, similar incubations were performed with NP40, Triton X-100, and SDS (at a final concentration of 0.1%) or the trimer preparation was untreated. Reactions were separated on BN-PAGE and visualized by coomassie G-250 stain. Arrows indicate HMW aggregate, a2M contaminant, trimer and monomer proteins. M stands for the 669 k thyroglobulin and 440 k ferritin molecular weight protein standards.
Tween® 20 Dose effect: 1 ug of purified 5768.4 SOSIP R6 trimer was incubated with varying concentrations of Tween® 20 ranging from 0.1 to 0.0001% (v/v) and incubated for 1 hour at room temperature. Following incubation, samples were analyzed by BN-PAGE as described above. Detergent effect on 5768.4 SOSIP R6 gp140 trimer preparations: 0.24 ug of purified 5768.4 SOSIP R6 trimer was incubated with Triton X-100, NP-40, or SDS to a final detergent concentration of 0.1% (v/v) or with Tween® 20 at concentrations of 0.05 and 0.1% for 1 hour at room temperature. Following incubation, 4× BN-PAGE MOPS sample buffer was added and the samples were immediately analyzed on BN-PAGE at 150 V for 2 hours at room temperature, followed by Coomassie G-250 staining.

[2] = system: HIV-1KNH1144 Env-pseudotyped virus; test: Env-pseudotyped HIV-1 neutralization assay, KNH1144 Env; type: cell-based; details: CCR5 inhibitors and RT inhibitor, read-out: Env-pseudotyped neutralization (50% endpoint) KNH1144
Protocol: (§1) FIGS. 4A-AF: Inhibition of infection by HIV-1JR-FL (filled circles) or HIV-1KNH1144 (open circles) Env-pseudotyped viruses by MAbs and fusion inhibitors. The viruses were incubated with the indicated concentrations of the inhibitors for 1 h prior to addition to U87.CD4.CCR5 cells. The luciferase content of cell lysates was determined after 3-4 days.
(§2) The generation and quantification of Env-pseudotyped HIV-1 viruses and their subsequent use in neutralization assays have been described previously.^45,65. U87.CD4.CCR5 target cells were used because the input pseudoviruses had the R5 phenotype. The amount of input pseudovirus was normalized by infectivity (virus titer). Virus infection was measured by determining luciferase expression in relative light units (RLU) in target cell lysates, according to the manufacturer's instructions (Promega, Madison, Wis.).
(§3) To assess the neutralization sensitivity of viruses bearing subtype A Env proteins, cytoplasmic tail-truncated gp140s from KER2008, KNH1144, KNH1207 and KNH1211 were co-expressed in trans with the pNL4/3.Luc plasmid to form single cycle, replication-incompetent pseudoviruses^72. Pseudovirions bearing the full-length Env protein from HIV-1JR-FL were also studied, for comparison.

[3] = system: HIV-1JR-FL Env-pseudotyped virus; test: Env-pseudotyped HIV-1 neutralization assay, JR-FL Env; type: cell-based; details: CCR5 inhibitors and RT inhibitor, read-out: Env-pseudotyped neutralization (50% endpoint) JR-FL
Protocol: as §1, §2, §3

[4] = target: KER2008 gp120 (monomeric, subtype A) (HIV-1 KER2008, subtype A); test: ELISA on D7324-captured gp120, half-maximal binding
[5] = target: KNH1144 gp120 (monomeric, subtype A) (HIV-1 KNH1144, subtype A); test: as above
[6] = target: KNH1207 gp120 (monomeric, subtype A) (HIV-1 KNH1207, subtype A); test: as above
[7] = target: KNH1211 gp120 (monomeric, subtype A) (HIV-1 KNH1211, subtype A); test: as above
[8] = target: Q23-17 gp120 (monomeric, subtype A) (HIV-1 Q23-17, subtype A); test: as above
[9] = target: gp120BaL (subtype B) (HIV-1 BaL, subtype B); test: as above
[10] = target: gp120DU151 (subtype C) (HIV-1 DU151, subtype C); test: as above
[11] = target: gp120JR-FL (monomeric, subtype B) (HIV-1 JR-FL, subtype B); test: as above
[12] = Oligomeric stability of purified SOSIP gp140 trimers to detergents, BN-PAGE; type: physicochemical; details: 0.1% (v/v), 1 h, 25° C.
Protocol: Biophysical and antigenic characterization of purified trimers derived from KNH1144 SOSIP gp140. (A) Trimeric KNH1144 SOSIP gp140 was treated with 0.1% (v/v) ionic (SDS) and non-ionic (NP40, Nonidet-P40; Tw20 (Tween®-20); TX100 (Triton X-100) detergents for 1 h at 25° C. before BN-PAGE analysis. (B) Trimeric KNH1144 SOSIP gp140 was incubated with 0.5 μg/ml of the indicated MAbs or proteins, and then immunoprecipitated with protein G sepharose prior to analysis by SDS-PAGE.
The oligomeric stability of purified SOSIP gp140 trimers was determined essentially as previously described.^44 Briefly, 50 ng of protein was treated with 0.1% (v/v) SDS, Nonidet P-40, Tween®-20 or Triton X-100 for 1 h at room temperature, followed by analysis on BN-PAGE. The various oligomeric forms of Env resolved on the gel were detected by CA13 immunoblotting.
A purified Env trimer should meet several criteria to establish that it has been synthesized, folded, cleaved and otherwise post-translationally modified correctly. For example, it is important to establish that SOSIP gp140 trimers are oligomerized via non-covalent interactions between the gp41ECTO subunits, and not via aberrant inter-subunit disulfide bonds^40,66,67. For these assessments, purified KNH1144 SOSIP gp140 trimers were treated for 1 h at 25° C. with 0.1% (v/v) ionic (SDS) and non-ionic (NP-40, Tween®-20, Triton X-100) detergents and then analyzed by BN-PAGE. […] This is consistent with studies of JR-FL SOSIP gp140 trimers^44.

[13] = target: BB359 gp120 (monomeric, subtype A) (HIV-1 BB359, subtype A); test: ELISA on D7324-captured gp120, half-maximal binding
[14] = target: HIV-1KER2008 Env on Env-pseudotyped virus (HIV-1 KER2008, subtype A); test: cell-based or functional assay
[15] = target: HIV-1KNH1144 Env on Env-pseudotyped virus (HIV-1 KNH1144, subtype A); test: cell-based or functional assay
[16] = target: HIV-1KNH1207 Env on Env-pseudotyped virus (HIV-1 KNH1207, subtype A); test: cell-based or functional assay
[17] = target: HIV-1KNH1211 Env on Env-pseudotyped virus (HIV-1 KNH1211, subtype A); test: cell-based or functional assay

Row | Compound | EC50 [4] [µg/mL] | EC50 [5] [µg/mL] | EC50 [6] [µg/mL] | EC50 [7] [µg/mL] | EC50 [8] [µg/mL] | EC50 [9] [µg/mL] | EC50 [10] [µg/mL] | EC50 [11] [µg/mL] | EC50 [13] [µg/mL] | other results
1 | 5768.4 SOSIP R6 gp140: subtype B 5768.4 envelope modified to the soluble SOSIP R6 gp140 trimer; SEQ ID NO:10 |  |  |  |  |  |  |  |  |  | effect of NP40 on HMW aggregate ([1]; 0.1%): collapse of HMW aggregate to trimer; effect of SDS ([1]; 0.1%): breaking down the entire 5768.4 gp140 protein to resulting monomers; effect of Triton X-100 on HMW aggregate ([1]; 0.1%): capable of collapsing HMW aggregate to trimer, however, some breakdown to monomeric 5768.4 was observed; effect of Tween (Tween 20 and Tween 80) on HMW aggregate ([1]; 0.1 and 0.05%): effectively collapsed HMW aggregate to trimers
2 | Cc1cn([C@H]2C[C@H](N=[N+]=[N-])[C@@H](CO)O2)c(=O)[nH]c1=O [AZT] |  |  |  |  |  |  |  |  |  | IC50 [2]: 240 nM; IC50 [3]: 220 nM
3 | CCO/N=C(\c1ccc(Br)cc1)C1CCN(C2(C)CCN(C(=O)c3c(C)cc[n+]([O-])c3C)CC2)CC1 [SCH-C] |  |  |  |  |  |  |  |  |  | IC50 ([2]; Human immunodeficiency virus 1): 0.04 nM; IC50 ([3]; Human immunodeficiency virus 1): 0.2 nM
4 | COC[C@@H](c1ccc(C(F)(F)F)cc1)N1CCN(C2(C)CCN(C(=O)c3c(C)ncnc3C)CC2)C[C@@H]1C [SCH-D] |  |  |  |  |  |  |  |  |  | IC50 ([2]; Human immunodeficiency virus 1): 0.01 nM; IC50 ([3]; Human immunodeficiency virus 1): 0.1 nM
5 | CD4-immunoglobulin G2 (CD4-IgG2) protein (from UniProt P01730 26-204) (Fc fusion) | 0.236 | 0.103 | 0.068 | 0.063 | 0.083 | 0.057 | 0.09 | 0.046 |  | 
6 | KNH1144 SOSIP gp140: soluble, disulfide-stabilized, I571P-modified cleaved trimeric gp140 of HIV-1 subtype A KNH1144 |  |  |  |  |  |  |  |  |  | adverse effects of NP-40 on trimers [12]: little; adverse effects of Triton X-100 on trimers [12]: little; adverse effects of Tween-20 on trimers [12]: no; effect of SDS on trimers [12]: completely dissociate into dimers and monomers
7 | MAb CA13 (ARP 3119) (antibody) | 1.57 | 0.636 | 0.337 | 0.176 | 0.094 | 0.059 | 0.043 | > 9 | 0.406 | 
8 | human monoclonal IgG 2F5 (antibody) |  |  |  |  |  |  |  |  |  | IC50, neutralization of Env-pseudotyped virus [14]: > 3 µg/mL; IC50, neutralization of Env-pseudotyped virus [15]: > 3 µg/mL; IC50, neutralization of Env-pseudotyped virus [16]: 0.01 µg/mL; IC90, neutralization of Env-pseudotyped virus [16]: 0.21 µg/mL; IC50, neutralization of Env-pseudotyped virus [17]: 0.03 µg/mL; IC90, neutralization of Env-pseudotyped virus [17]: 0.99 µg/mL
9 | human monoclonal IgG 2G12 (antibody) | 0.064 | > 1 | 0.478 | > 1 | 0.54 | 0.012 | > 1 | 0.061 | > 1 | 
10 | human monoclonal IgG b12 (antibody) | > 1 | 0.642 | 0.092 | 0.033 | > 1 | 0.015 | 0.018 | 0.027 | > 1 | IC90, neutralization of Env-pseudotyped virus [14]: > 3 µg/mL; IC90, neutralization of Env-pseudotyped virus [15]: > 3 µg/mL; IC50, neutralization of Env-pseudotyped virus [16]: 0.21 µg/mL; IC90, neutralization of Env-pseudotyped virus [16]: 0.9 µg/mL; IC50, neutralization of Env-pseudotyped virus [17]: 1.14 µg/mL; IC90, neutralization of Env-pseudotyped virus [17]: 1.9 µg/mL
